Results reported in US20260176659A1, “IMPROVED METHOD FOR THE PRODUCTION OF NATURAL VANILLIN” (BASE SE, priority 2022, published 2026).
Several values for one entry are separate records, joined by “and”; a condition that tells them apart may be missing. Equal values may be shown once.

Key:
Assay type in all cases: biochemical
[1] = Bioconversion of eugenol to vanillin: one-pot concurrent cascade EUGO + alkene cleavage oxygenase (5 mM scale); settings: for Intermediate and product distribution at 24 hours 2a [%] / Intermediate and product distribution at 24 hours 3a [%] / Intermediate and product distribution at 24 hours 5a [%] / 2a / 3a / 5a / Conv. [%] ((3a mM)/5*100): EUGO 0.5 mg CFE, CO-25 3 mg CFE, catalase 5 mg; for 2a / 3a / 5a / Conv. [%] ((3a mM)/5*100): 24 hours; for Reaction composition after 24 hours 1a (%) / Reaction composition after 24 hours 2a (%) / Reaction composition after 24 hours 3a (%) / Reaction composition after 24 hours 5a (%): Table 8a, CO-XX FD-CFE 1 mg/mL; for Reaction composition after 24 hours 1a (%) / Reaction composition after 24 hours 2a (%) / Reaction composition after 24 hours 3a (%) / Reaction composition after 24 hours 5a (%) / Product distribution after 24 hours 2a (%) / Product distribution after 24 hours 3a (%) / Product distribution after 24 hours 5a (%): EUGO FD-CFE 1 mg/mL, catalase 10 mg/mL, eugenol 5 mM; for Product distribution after 24 hours 2a (%) / Product distribution after 24 hours 3a (%) / Product distribution after 24 hours 5a (%): Table 8b, CO-0X FD-CFE 1 mg/mL; for Conversion of 1a to 3a (%) / Reaction composition at 24 hours (%) 1a / Reaction composition at 24 hours (%) 2a / Reaction composition at 24 hours (%) 3a / Reaction composition at 24 hours (%) 5a: replicates of concurrent cascade with EUGO, 5 mM 1a, SD of four experiments; for Conversion of 1a to 3a (%): 24 h
In short: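 Cell-free extracts of EUGO (0.5 mg) and cleavage oxygenase (3 mg) were combined with catalase, 1 mM FeSO4 and 1 mM ascorbate in glycine-NaOH pH 9.0 (or Tris-HCl pH 8.0). The cascade ran with 5 mM eugenol (5% ethanol/DMSO cosolvent) at 30° C and 120 rpm overnight. Methanol-quenched samples were analysed by HPLC at 280/340 nm.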

[2] = Conversion of 50 mM coniferyl alcohol to vanillin by CO-25; settings: for Intermediate and product distribution at 24 hours 2a [%] / Intermediate and product distribution at 24 hours 3a [%] / Intermediate and product distribution at 24 hours 5a [%] / 2a / 3a / 5a / Conv. [%]: CO-25 3 mg CFE, catalase 4 mg, 0.4 mL, 50 mM coniferyl alcohol 2a; for 2a / 3a / 5a / Conv. [%]: 24 hours
Method: In each well of a deep-well-plate sealed with a gas permeable tape we mixed CO-25 (3 mg CFE) and catalase (4 mg) with coniferyl alcohol 2a (3.6 mg, 0.02 mL from 1M stock, final conc.: 50 mM) to a final volume of 0.4 mL. After one day incubation shaking at 290 rpm we obtained 40-46% conversion of coniferyl alcohol 2a to vanillin 3a (Table 10).

[3] = Subsequent screening of alkene cleavage oxygenases: activity with coniferyl alcohol
Method: Therefore, 50 mL TB-Kan medium in a 250 mL shake flask were inoculated with an overnight preculture of E. coi BL21 (DE3) carrying a pET-28a plasmid encoding CO-25 in the expression cassette. At OD600 ˜0.8-1, the expression was induced with 0.1 mM IPTG and the culture incubated at 25° C. for 20 hours. 0.5 mM FeSO4*7H2O was added together with the inducer. Then, the cells were disrupted by sonication in Glycine-NaOH 50 mM pH 9.0 containing 1 mM FeSO4*7H2O and 1 mM sodium ascorbate. After centrifugation, the cell free extract was lyophilized and stored at −20° C. From 50 mL cell culture we obtained 235 mg of freeze-dried cell free extract.

[4] = Spectrophotometric enzymatic assay: cleaving activity, production of vanillin from coniferyl alcohol at 349 nm
Method: Stock solution 200× of coniferyl alcohol (90 mg) was prepared in ethanol (5 mL) and stored at −20° C. From this, a new stock solution 20× of coniferyl alcohol (10 mM) was freshly prepared by 1:10 dilution in Glycine-NaOH (50 mM, pH 9.0). A cuvette containing 0.750 mL Glycine-NaOH (50 mM, pH 9.0) and 0.05 mL of the substrate 20× stock was pre-warmed at 25° C. for 1.5 mins. Then, the reaction was initiated by the addition of 0.2 mL of the enzyme sample. The cleaving […] activity was measured spectrophotometrically following the production of vanillin at 349 nm (ε349=26.7 mM^−1cm^−1 experimentally determined). One unit of activity (U) is defined as the amount of enzyme required to produce 1 μmol of vanillin per min. Agilent Cary 60 UV-Vis Spectrophotometer was used for all the measurements.
Searching for alternative novel alkene cleavage oxygenases (COs) catalysing the formation of vanillin from coniferyl alcohol was performed. A set of 27 sequences and 10 COs from different branches of the phylogenetic tree were selected, named CO-02-11. Two additional enzymes were included, which are located in different clusters of the phylogenetic tree: Lignostillbene dioxygenase from Pseudomonas brassicaceraum (PbLSD, PDB: 5V2D) and aromatic dioxygenase (Ado, CO-01) from Thermothelomyces thermophilus (GenBank ID: XP_003665585). The proteins were recombinantly expressed in E. coli BL21(DE3), following the same protocol developed for IECO. […] Putative COs were screened by spectrophotometric assay, monitoring the formation of 3a upon 2a cleavage. From a set of twelve COs, four positive hits, namely CO-01, CO-03, CO-06 and CO-07 were found. Positive variants were tested in the one pot cascade and compared them with IECO In agreement with the spectrophotometric screening, all four COs converted eugenol 1a to vanillin 3a (Table 8). The first step of the cascade is efficiently performed by EUGO, and the substrate is completely consumed. […] Overall, 70±3% conversion of 1a to vanillin 3a was achieved.

[5] = CO-03 activity in presence of eugenol
Method: Stock solutions of coniferyl alcohol (250 mM), eugenol (0-2 M) were prepared in ethanol and stored at −20° C. Unless otherwise specified, the reaction mixtures (0.5 mL) were set up in 1.5 mL glass vials as follows: CO-03 (freeze-dried CFE 5-10 mg/mL) was dissolved in buffer (Glycine-NaOH 50 mM, pH 9.0 or Tris-HCl 50 mM, pH 8.0) with sodium ascorbate (1 mM), FeSO4 (1 mM), bovine liver catalase (Sigma C40, 10 mg/mL) and eugenol (0-100 mM). The final content of ethanol was 5-7% v/v. The reaction was initiated by the addition of coniferyl alcohol (5 mM), and then incubated for 4 hours at 30° C. and 120 rpm (rotary shaker). To improve the oxygenation, the vials were placed horizontally.

[6] = cascade with EUGO, pH 8.0 and pH 9.0

B1: CO-25: cleavage oxygenase from Novosphingobium aromaticivorans (Uniprot: Q2GA76), SEQ ID NO: 134 (protein)
chain: MAQFPNTPSFTGFNTPSRIEADIADLAHEGTIPQGLNGAFYRVQPDPQFPPRLDDDIAFNGDGMITRFHIHDGQVDFRQRWAKTDKWKLENAAGKALFGAYRNPLTDDEAVKGEIRSTANTNAFVFGGKLWAMKEDSPALVMDPATMETFGFEKFGGKMTGQTFTAHPKVDPKTGNMVAIGYAASGLCTDDVTYMEVSPEGELVREVWFKVPYYCMMHDFGITEDYLVLHIVPSIGSWERLEQGKPHFGFDTTMPVHLGIIPRRDGVRQEDIRWFTRDNCFASHVLNAWQEGTKIHFVTCEAKNNMFPFFPDVHGAPFNGMEAMSHPTDWVVDMASNGEDFAGIVKLSDTAAEFPRIDDRFTGQKTRHGWFLEMDMKRPVELRGGSAGGLLMNCLFHKDFETGREQHWWCGPVSSLQEPCFVPRAKDAPEGDGWIVQVCNRLEEQRSDLLIFDALDIEKGPVATVNIPIRLRFGLHGNWANADEIGLAEKVLAA
modifications: Novosphingobium aromaticivorans
[1]; 5 mM eugenol, pH 8
  Intermediate and product distribution at 24 hours 2a [%]: 16.4% and 17.1%
  Intermediate and product distribution at 24 hours 3a [%]: 83.1% and 82.4%
  Intermediate and product distribution at 24 hours 5a [%]: 0.5%
  2a: 4.18 mM and 4.39 mM
  3a: 4.18 mM and 4.39 mM
  5a: 0.03 mM
  Conv. [%] ((3a mM)/5*100): 83.5% and 87.7%
[1]; 5 mM eugenol, pH 9
  Intermediate and product distribution at 24 hours 2a [%]: 12.8% and 11.6%
  Intermediate and product distribution at 24 hours 3a [%]: 86.3% and 87.5%
  Intermediate and product distribution at 24 hours 5a [%]: 0.9%
  2a: 4.31 mM and 4.21 mM
  3a: 4.31 mM and 4.21 mM
  5a: 0.05 mM and 0.04 mM
  Conv. [%] ((3a mM)/5*100): 86.2% and 84.2%
[1]; EUGO and CO-25, 5 mM eugenol, 0.5 mL scale, pH 8 and 9
  conversion to vanillin 3a: 83-88%
[2]; pH 8
  Intermediate and product distribution at 24 hours 2a [%]: 47.7%
  Intermediate and product distribution at 24 hours 3a [%]: 51.1%
  Intermediate and product distribution at 24 hours 5a [%]: 1.1%
  2a: 21.48 mM
  3a: 23.01 mM
  5a: 0.52 mM
  Conv. [%]: 46.0%
[2]; pH 9
  Intermediate and product distribution at 24 hours 2a [%]: 52.5%
  Intermediate and product distribution at 24 hours 3a [%]: 45.7%
  Intermediate and product distribution at 24 hours 5a [%]: 1.9%
  2a: 22.87 mM
  3a: 19.92 mM
  5a: 0.81 mM
  Conv. [%]: 39.8%
[2]; CO-25, 50 mM 2a, one day incubation
  conversion of coniferyl alcohol 2a to vanillin 3a: 40-46%
[3]
  activity with coniferyl alcohol in comparison to NOV1 mutant S283F: significant higher activity

B2: CO-03: alkene cleavage oxygenase from Sphingomonadales bacterium, SEQ ID NO: 30 (protein, listed as Sphingomonadales bacterium)
chain: MSLFNRNHPVFSGGNAPVRIETDAICLETDGALPDELKGSYFRLTADPQFPPRLRPVLVEADGHVGAFHFRDNGQVDYVGKWVRTERFLRERAARRALFGTYRNRFTDEESVLDSDRTTANTAFMFHHHKFFALKEDGLPYQLDPETLDTIGRYDFGGTVSAKSLSAHPKVDSRTGELITHSGQAKGEGTPDIAYYVFDKNGTKTVERWFEAPYSSIVHDIAITQDWVVLPIMPAVVEEERLRAGGATYWWKPELGNHIAVFRRDGTGDVRWFRTKATYAFHVVNSYQDGDRLIIDVMDAEEFPMWWPRPEQVAALRSGEIKRDKFVAQLTRWTIDLAGDSDDIERELLHPWEAEMPRIDDRFAGQPYRYAVYGVDDPSFPLAHGLAELGVNHNSVGWWDHQTRTLTSWYTGPNSSVGEPVFTPRSPDAPEGDGFILAVVQRLAEQRSELVVIDTRDVAAGPIASVHAPHRLKNAIHNLWIDQEQLNEGGEKA
[4]; freeze-dried cell free extract incl. buffer salts, vanillin from coniferyl alcohol
  Specific Activity (mU/mg of FD-CFE): 7-10 mU/mg
[4]; spectrophotometric assay
  Screening of putative COs: formation of 3a upon 2a cleavage (hit or inactive): positive hits
[1]; pH 8.0
  Reaction composition after 24 hours 1a (%): ≤1%
  Reaction composition after 24 hours 2a (%): 14%
  Reaction composition after 24 hours 3a (%): 78%
  Reaction composition after 24 hours 5a (%): 8%
  Product distribution after 24 hours 2a (%): 19.6%
  Product distribution after 24 hours 3a (%): 72.0%
  Product distribution after 24 hours 5a (%): 8.4%
  Conversion of 1a to 3a (%): 70 ± 3%
  Reaction composition at 24 hours (%) 1a: 1≤ %
  Reaction composition at 24 hours (%) 2a: 14 ± 3%
  Reaction composition at 24 hours (%) 3a: 80 ± 2%
  Reaction composition at 24 hours (%) 5a: 9 ± 1%
[1]; pH 9.0
  Reaction composition after 24 hours 1a (%): ≤1%
  Reaction composition after 24 hours 2a (%): 8%
  Reaction composition after 24 hours 3a (%): 81%
  Reaction composition after 24 hours 5a (%): 11%
  Product distribution after 24 hours 2a (%): 11.9%
  Product distribution after 24 hours 3a (%): 74.9%
  Product distribution after 24 hours 5a (%): 13.2%
  Conversion of 1a to 3a (%): 70 ± 3%
  Reaction composition at 24 hours (%) 1a: 1≤ %
  Reaction composition at 24 hours (%) 2a: 7 ± 2%
  Reaction composition at 24 hours (%) 3a: 83 ± 3%
  Reaction composition at 24 hours (%) 5a: 10 ± 1%
[1]; [6]
  amount of 3a in reaction mixture: 78-81%
  remaining 2 and its oxidation product 5a in the reaction mixture: ~20%
[1]; with EUGO, 5 mM substrate concentration
  overall conversion of 1a to vanillin 3a in the 2-step cascade: 70±3% and 70%
[5]; 50 mM 1a, increased biocatalyst amount and modified reaction buffer
  cleaving activity retained: 49%
[5]; at 50 mM 1a
  Residual activity: ≤ 10%
